The values below are quoted from earlier work in paper PMC3931982.

Broadly, the Kd is the equilibrium constant for the complex coming apart.

For this data set, the target named is RXR LBD (Homo sapiens) (UniProt P19793).

In the case of RXR LBD (from UniProt P19793), the Kd was 4 nM.
